# B1: IL-4: cytokine reported to promote TCR-induced CCR6 down-regulation (protein, UniProt P05112 25-153, looked up)
# Interleukin-4: HKCDITLQEIIKTLNSLTEQKTLCTELTVTDIFAASKNTTEKETFCRAATVLRQFYSHHEKDTRCLGATAQQFHRHKQLIRFLKRLDRNLWGLAGLNSCPVKEANQSTLENFLERLKTIMREKYSKCSS
# Tested on: CCR6^+CD4^+ memory T cells
# Test: CCR6 expression on CCR6+CD4+ memory T cells after TCR stimulation (anti-CD3/anti-CD28 beads)
# Assay type: cell-based, human
# Conditions: six days, TGF-ß 10 ng/ml
# Procedure: Buffy coats (DRK Blutspendedienst, Berlin, Germany) and peripheral blood samples were obtained from healthy donors after informed consent in accordance with local ethical committee approval. PBMCs were separated with a Ficoll-Hypaque gradient (Sigma-Aldrich). Cell surface antigens were analyzed by single-parameter or multi-parameter fluorescence-activated cell sorter (FACS®, BD Biosciences) analysis using the following monoclonal antibodies: PE-anti-CCR6 (11A9) and Alexa700-anti-CD4 (RPA-T4) (both from BD Biosciences). APC-anti-CD25 (BC96) was purchased from ebioscience. PE-Cy5-anti-CD8 (B9.11), PE-Cy5-anti-CD56 (N901) and FITC-anti-CD25 (B1.49.9) from Beckman Coulter. Antibodies generated in house (DRFZ, Berlin): FITC-anti-CD45RA (4G11), Alexa405-anti-CD4 (TT1) and Alexa405-anti-CD3 (OKT3). In some experiments, CCR6 expression was detected by indirect immunofluorescence using biotinylated CCR6 (11A9, BD Biosciences) followed by staining with APC-conjugated streptavidin (SouthernBiotech). […]
# Memory CD4^+CCR6^+ and CD4^+CCR6^− cells were stained with carboxyfluorescein succinimidyl ester (CFSE) and cultured either in CM containing magnetic beads as described above or 10 ng/ml IL-7 and 10 ng/ml IL-15 (R&D Systems). […] At the end of the cultures, cells were analyzed by flow cytometry and used for methylation analyses (see below).
molecule,measurement,value
B1,effect on TCR-induced down-regulation of CCR6 expression,promoted

# — patent US10590475B2, “Detection of immune cells, in particular T cells through DNA-methylation analysis of the genes CCR6 and BLR1” (Epiontis GmbH, priority 2010, dated 2020)
